Experimental data published in the DeepSol protein solubility set.

Assay: soluble on expression in E. coli; label from the status in PepcDB or PDB records

Soluble on expression in E. coli, not soluble:
TKEHRAIARKTASESFVLLKNEGVLPLSKKGTIAVVGPLANTRSNMPGTWSVAAVLDNAPSLVEGLREVVGDRAKVVTAKGSNLIGDADYEKRATMFGRELHRDNRTDRELLDEALKVAAGADVIVAALGESSEMSGESSSRTNLEMPDVQRALLQELLKTGKSVVLVLFTGRPLVLTWEEEHVPAILNVWFGGSEAAYAISDVLFGDVNPSGKLTATFPQNVGQIPLFYNHKNTGRPLQEGRWFEKFRSNYLDVSNEPLYPFGYGL, TKKNELNKAHVTIALTNPKTPTNVGAVIRAAGCYQADQIIYNGNRYAQAAKYHKKTLQTDTFNMQDKIPLLQVESFIGIKDSLESIPSSAKIICVDLVEGATPLPHFIHPPEAVYIFGPEDSSVKQEVIDIADDVVYVPTVGCMNLAATVNVLLYDRLAKSL, TQEKRSYMEKLSDENGIISALAFDQRGALKRLMAQYQTQEPTIAQMEELKVLVAEELTPYASSMLLDPEYGLPAAKHLDKNAGLLLAYEKTGYDTTSTKRLPDCLVEWSAKRLKKQGADAVKFLLYYDVDGDEEVNQQKQAYIERIGSECKAEDIPFFLEILAYDETITDAASVEYAKVKPHKVLDAMKVFSDERFGIDVLKVEVPVNMKYVEGFGDGPIVHTQDQAANFFKQQDQATPLPYIYLSAGVSAKLFQDTLVFAKESGANFNGVLCGRATWAGSVKDYIEKGEAAARQWLRTEGFKNIDELNKVLKATATSWKE, TQLQLKDSMEKFGALYHSSSLGMLIVIEREIVDANHRALELLSYKKSDLLEQSLDTLCPTTADECRVDAMYRELQHGRNQFEAQMLDSHGETIDCLIEATLIQHNGHTALMLLLQDLS, TQVYKAKFGTPNRGWVIIVHGLGEHSGRYSKLVSMLVNEGYAVYTFDWPGHGKSPGKRGHTSVEEAMEIIDFIIEEINDKPFLFGHSLGGLTVIRYAETRPEKIRGVIASSPALAKSPKTPSFMVALAKILGVLLPSLTLSNGIDPNLLSRNPDAVKRYIEDPLVHDRISAKLGRSIFKNMDLAHREAHKIKVPVLLLVGTGDVITPPEGARKLYGEIKVEDKEIVEFEGAYHEIFEDPEWGEEFHKKIVEWIKKH, TSSLSYWQGEAFRRGFDSRGRFDDVLKILLLLDAAQKEGKALPVQEFRRHINMGYDELGELLEKLARHGYIYSGRQGWVLKTGADSIELNELFKLFVYRPLPVERDHVNQAVDAVMTPCLQTLNMTLAEFDAQAKKRQ, TTQNELLNRIAELETKVAFQDNVIEELNQVLIHHQFVLDKLQTQVRHFANKFKNIQSSNVASQAEETPPPHY, TVEFRDLQGQRMIAVAENVASTPVVRDQLSDRSVERVLAPEVDRAVNLSGATLAEIVAPNGAVTVSSDPTRLGVPAELGASDVMTGRAWSGDVDVDGRRAIVGHVPILSATGDVLAVVTVSDDYPSVWDLLSSAG, VADVVPLDANNRILVHQGLMRIRAGRARPGLRAILEVARREPARITSTDLGFILGPRLNAAGRLDDMSLGIECLLCDDPTRAREMAVQLDELNQDRKSIEQGMQREALAQLKDLPMESMPFGLCLFDAEWHQGVIGIL, VDRLHIIGDIFDRGPRADIIMDKLEEYHAVDIQWGNHDILWMGAASGSSVCMANVIRISARYANLSTIEDGYGINLLPLATFAMDFYGNDKCKNFEPKIESDKSYTVKEIELIGKMHKAIAIIQFKLEGEAIKRHPEFKMEHRMLLNKINFEDSTIELDGKKYKLNDTSFPTIDKNDPYKLIDEEREVVEKLRSSFVNSEKLNRHVRFLFSHGNLYLKFNSNLLYHGCIPLNEDGTFKEVLIGSHKYKGKALLDKLDVLARKSFFYEENSKNSKYENDMIWYLWSGPFSPLFGKEKMTTFERYFIDDKKTHYEKKDPYYHYRDDEDICINILREFGLDSEQAHIINGHVPVESKNGENPIKANGKLIVIDGGFSKAYQSKTGIAGYTLIYNS, VDSVFVVGHKNLDMDALGASVGMQAFANNIIEHAAYAVYDEDSMSHDVARAVNRLKEDGHTQLLTVKESIEQVSDNSLLVMVDHSKLQLTLSRELYNKFTEVIVIDHHRRDDDFPENAILTFIESGASSASELVTELLQFQNGKYHLNKIQASIVMAGIMLDTKSFSTRVTSRTFDVASYLRTLGSDNVEIQNISALDF, VFALSNNLNRVNACMDGFLARIRSHVDAHAPELRSLFDTMAAEARFARDWLSEDLARLPVGAALLEVGGGVLLLSCQLAAEGFDITAIEPTGEGFGKFRQLGDIVLELAAARPTIAPCKAEDFISEKRFDFAFSLNVMEHIDLPDEAVRRVSEVLKPGASYHFLCPNYVFPYEPHFNIPTFFTKELTCRVMRHRIEGNTGMDDPKGVWRSLNWITVPKVKRFAAKDATLTLRFHRAMLVWMLERALTDKEFAGRRAQWMVAAIRSAVKLRVHHLAGYVPATLQPIMDVRLTKR, VGAPLAVELDRSSPVPLYFQLAQTIENAIIGGELAPGDRFENELALAKRLNLSRPTTRRAIQELVDKGLLVRKRGVGTQVVQSAVHRPVELTSLFDDLARAGQSPTTKLLDYQVSVPAEDVAAELNLQPGAEVASIRRLRSTNGEPLALMTNHIPVDLAPDPEELEAHGLYHALRARGVHIRLARQRIGAKAASKAEASLLDEKTGAPLLTMNRTAFDDSGSAVEFGSHCYRASRYYFDTTVVDR, VHSELTAAVGWNVWNELFTCSDDQTIHKWNMLGEPEQKVSTLDAYFTDMHWYPVSSKKTQAGGTDVFAVACTDGSVKILSRTGRVEKSIEGHKGACISLRWSYDGTALATAGEDGSVKIWSRNGMLRSTLAQADSPVYSIVWAYDCDQLCYCTGSNVVIKSLSSNAKQNAWKAHDGVVLKVDWSPINHLIITGGEDCKYKVWDSFGRLLFQSGLFDYPVTSVAWAPSGELFAVGGFNTLQLCDRMGWAYSKIHLNDTGSIMTLSWTADSTQLA, VLGSSSTDAIGPGSVFQIDATVADVYLVSRFNRTHIIGRPVLYIVQDCFSKLIVGLYVGLEGPSWIGAAMALANTAGNKVSFCSQYGIDIQEEEWPVHHLPQAILADRGEMLSDNAESLIMNLGITVKNTPPFRADWKPLVERYFKLTNERTKSLLPGAVNTDFMQRGGRDYRLDAKLDLMQFTAIIIKCALFHNNHYRIDNYNKDEMMVADEVEPIPREIWNWGIANRMGKLRHVDEEVVKLNLMPSDNGVVTAKGIRFKGLFYSSKSSMKEQWFVKARSSGSWKVPVSYDPRNMNYIYIKKSATEFEKCYLLEYQTAFKDKYIEEIEYLMEWEKMQKAKSLDEGLQAKADLITEIETIVEGAKSKTNKELSLSTESDAQRKKNIRQNRQVEKEINREIEAFELDRQPNNKNAEIISLNELEEELPSNPLDLLRRKQREMLGKINE

Soluble on expression in E. coli, soluble:
TLKGKTALVTGSTSGIGLGIAQVLARAGANIVLNGFGDPAPALAEIARHGVKAVHHPADLSDVAQIEALFALAEREFGGVDILVNNAGIQHVAPVEQFPLESWDKIIALNLSAVFHGTRLALPGMRARNWGRIINIASVHGLVGSTGKAAYVAAKHGVVGLTKVVGLETATSNVTCNAICPGWVLTPLVQKQIDDRAANGGDPLQAQHDLLAEKQPSLAFVTPEHLGELVLFLCSEAGSQVRGAAWNVDGGWLAQ, TTTVGLVCKDGVVMATEKRATMGNFIASKAAKKIYQIADRMAMTTAGSVGDAQFLARIIKIEANLYEIRRERKPTVRAIATLTSNLLNSYRYFPYLVQLLIGGIDSEGKSIYSIDPIGGAIEEKDIVATGSGSLTAYGVLEDRFTPEIGVDEAVELAVRAIYSAMKRDSASGDGIDVVKITEDEFYQYSPEEVEQILAKFRK, TVQVPVYSEQEYQLYLHDDAWTKAETDHLFDLSRRFDLRFVVIHDRYDHQQFKKRSVEDLKERYYHICAKLANVRAVPGTDLKIPVFDAGHERRRKEQLERLYNRTPEQVAEEEYLLQELRKIEARKKEREKRSQDLQKLITAADTTAEQRRTERKAPKKKLPQKKEAEKPAVPETAGIKFPDFKSAGVTLRSQRMKLPSSVGQKKIKALEQMLLELGVELSPTPTEELVHMFNELRSDLVLLYELKQACANCEYELQMLRHRHEALARAGVLGGPATPASGPGPASAEPAVTEPGLGPDPKDTIIDVVGAPLTPNSRKRRESASSSSSVKKAKKP, VDEKALKHITEMGFSKEASRQALMDNGNNLEAALNVLLTSNKQKPVMGPP, VDGDQCESNPCLNGGSCKDDINSYECWCPFGFEGKNCEL, VEVESFLVHPGDLLQLRCRLRDDVQSINWLRDGVQLAESNRTRITGEEVEVQDSVPADSGLYACVTSSPSGSDTTYFSVNVSDALP, VGVGYFDTIEIKTILSLLQIIDNPMQDIPLISVLKSPIFGFTPEDLIDIRVQSKDKIFYEVLKSTAEYDGFTDSQNENESEFIPSEECINKSKDFLIKLKEFKEKSMYMSTDEFIWYLYTRTGYYAYVGALPGGSQRQANLKVLFERAKQFEETSLKGIFNFVNFIEKLKKSSSDMGSAKT, VKLTDVDFAVEASGMVRAFNQAGVLDVSDVHVAQRLCALAGESDERVALAVAVAVRALRAGSVCVDLLSIARVAGHDDLPWPDPADWLAAVRASPLLADPPVLHLYDDRLLYLDRYWREEEQVCADLLALLTSRRPAGVPDLRRLFPTGFDEQRRAAEIALSQGVTVLTGGPGTGKTTTVARLLALVAEQAELAGEPRPRIALAAPTGKAAARLAEAVRREMAKLDATDRARLGDLHAVTLHRLLGAKPGARFRQDRQNRLPHNVIVVDETSMVSLTLMARLAEAVRPGARLILVGDADQLASVEAGAVLADLVDGFSVRDDALVAQLRTSHRFGKVIGTLAEAIRAGDGDAVLGLLRSGEERIEFVDDEDPAPRLRAVLVPHALRLREAALLGASDVALATLDEHRLLCAHRDGPTGVLHWNRRVQAWLAEETGQPPWTPWYAGRPLLVTANDYGLRVYNGDTGVVLAGPTGLRAVISGASGPLDVATGRLGDVETMHAMTIHKSQGSQVDEVTVLMPQEDSRLLTRELLYTAVTRAKRKVRVVGSEASVRAAIARRAVRASGLRMRLQSTGCG, VKNPSLICAPVMADSIDKMVIETSKAHELGADLVEIRLDWLKDFNPLEDLKTIIKKSPLPTLFTYRPKWEGGQYEGDENERRDVLRLAMELGADYIDVELQVASEFIKSIDGKKPGKFKVIVSSHNYQNTPSVEDLDGLVARIQQTGADIVKIATTAVDIADVARMFHITSKAQVPTIGLVMGERGLMSRILCSKFGGYLTFGTLDSSKVSAPGQPTIKDLLDLYNFRRIGPDTKVYGIIGKPVSHSKSPIVHNQAFKSVDFNGVYVHLLVDNLVSFLQAYSSSDFAGFSCTIPHKEAALQCCDEVDPLAKSIGAVNTILRRKSDGKLLGYNTDCIGSISAIEDGLRSSGDPSSVPSSSSPLASKTVVVIGAGGAGKALAYGAKEKGAKVVIANRTYERALELAEAIGGKALSLTDLDNYHPEDGMVLANTTSMGMQPNVEETPISKDALKHYALVFDAVYTPRITRLLREAEESGAITVSGSEMFVRQAYEQFEIFTGLPAPKELYWQIMSKYGSRENLYFQ
